B1: PQBP5-Δ5 (protein)
chain: MQVSSLNEVKIYSLSCGKSLPEWLSDRKKRALQKKDVDVRRRIELIQDFEMPTVCTTIKVSKDGQYILATGTYKPRVRCYDTYQLSLKFERCLDSEVVTFEILSDDYSKIVFLHNDRYIEFHSQSGFYYKTRIPKFGRDFSYHYPSCDLYFVGASSEVYRLNLEQGRYLNPLQTDAAENNVCDINSVHGLFATGTIEGRVECWDPRTRNRVGLLDCALNSVTADSEINSLPTISALKFNGALTMAVGTTTGQVLLYDLRSDKPLLVKDHQYGLPIKSVHFQDSLDLILSADSRIVKMWNKNSGKIFTSLEPEHDLNDVCLYPNSGMLLTANETPKMGIYYIPVLGPAPRWCSFLDNLTEELEENPESTVYDDYKFVTKKDLENLGLTHLIGSPFLRAYMHGFFMDIRLYHKVKLMVNPFAYEEYRKDKIRQKIEETRAQRVQLKKLPKVNKELALKLIEEEEEKQKSTWKKKVKSLPNILT
modifications: Delta number assigned from the order of the constructs in the methods (fifth: 1-481, lacking NUC153); tag omitted. Exon 1 with the polyQ tract (18-38, 21Q) repeated to 110Q, as in the assayed protein name. The plasmid is called 103Q, so the repeat count is ambiguous. GST omitted.
B2: full-length human PQBP5 (His-tag fusion protein) (natural protein)
chain: MQVSSLNEVKIYSLSCGKSLPEWLSDRKKRALQKKDVDVRRRIELIQDFEMPTVCTTIKVSKDGQYILATGTYKPRVRCYDTYQLSLKFERCLDSEVVTFEILSDDYSKIVFLHNDRYIEFHSQSGFYYKTRIPKFGRDFSYHYPSCDLYFVGASSEVYRLNLEQGRYLNPLQTDAAENNVCDINSVHGLFATGTIEGRVECWDPRTRNRVGLLDCALNSVTADSEINSLPTISALKFNGALTMAVGTTTGQVLLYDLRSDKPLLVKDHQYGLPIKSVHFQDSLDLILSADSRIVKMWNKNSGKIFTSLEPEHDLNDVCLYPNSGMLLTANETPKMGIYYIPVLGPAPRWCSFLDNLTEELEENPESTVYDDYKFVTKKDLENLGLTHLIGSPFLRAYMHGFFMDIRLYHKVKLMVNPFAYEEYRKDKIRQKIEETRAQRVQLKKLPKVNKELALKLIEEEEEKQKSTWKKKVKSLPNILTDDRFKVMFENPDFQVDEESEEFRLLNPLVSKISEKRKKKLRLLEQQELREKEEEEEPEGKPSDAESSESSDDEKAWVEEVRKQRRLLQQEEKVKRQERLKEDQQTVLKPQFYEIKAGEEFRSFKDSATKQKLMNKTLEDRLKIEAKNGTLSVSDTTVGSKQLTFTLKRSEQQKKQQEAEKLHRQERKRLRRSAGHLKSRHKRGRSFH
B3: full-length human PQBP5 (His-tag fusion protein) (natural protein)
chain: B2 chain
modifications: Exon 1 with the polyQ tract (18-38, 21Q) repeated to 110Q, as in the assayed protein name. The plasmid is called 103Q, so the repeat count is ambiguous. GST omitted.
B4: PQBP5-Δ1 (protein)
chain: TYQLSLKFERCLDSEVVTFEILSDDYSKIVFLHNDRYIEFHSQSGFYYKTRIPKFGRDFSYHYPSCDLYFVGASSEVYRLNLEQGRYLNPLQTDAAENNVCDINSVHGLFATGTIEGRVECWDPRTRNRVGLLDCALNSVTADSEINSLPTISALKFNGALTMAVGTTTGQVLLYDLRSDKPLLVKDHQYGLPIKSVHFQDSLDLILSADSRIVKMWNKNSGKIFTSLEPEHDLNDVCLYPNSGMLLTANETPKMGIYYIPVLGPAPRWCSFLDNLTEELEENPESTVYDDYKFVTKKDLENLGLTHLIGSPFLRAYMHGFFMDIRLYHKVKLMVNPFAYEEYRKDKIRQKIEETRAQRVQLKKLPKVNKELALKLIEEEEEKQKSTWKKKVKSLPNILTDDRFKVMFENPDFQVDEESEEFRLLNPLVSKISEKRKKKLRLLEQQELREKEEEEEPEGKPSDAESSESSDDEKAWVEEVRKQRRLLQQEEKVKRQERLKEDQQTVLKPQFYEIKAGEEFRSFKDSATKQKLMNKTLEDRLKIEAKNGTLSVSDTTVGSKQLTFTLKRSEQQKKQQEAEKLHRQERKRLRRSAGHLKSRHKRGRSFH
modifications: Delta number assigned from the order of the constructs in the methods; initiator Met from the primer and tag omitted.
B5: PQBP5-Δ1 (protein)
chain: B4 chain
modifications: Delta number assigned from the order of the constructs in the methods; initiator Met from the primer and tag omitted. Exon 1 with the polyQ tract (18-38, 21Q) repeated to 110Q, as in the assayed protein name. The plasmid is called 103Q, so the repeat count is ambiguous. GST omitted.

Experiments:
GST-Htt-110Q = biological target: T1, GST-Htt-110Q; experiment: SPR
T1 chain: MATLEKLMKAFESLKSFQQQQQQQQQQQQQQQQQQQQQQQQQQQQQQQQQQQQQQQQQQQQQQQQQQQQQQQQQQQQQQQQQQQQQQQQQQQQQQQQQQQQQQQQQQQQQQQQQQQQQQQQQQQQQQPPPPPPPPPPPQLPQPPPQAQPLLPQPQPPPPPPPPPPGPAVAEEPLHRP

GST-Atxn1-33Q = biological target: T2, GST-Atxn1-33Q (UniProt P54253 1-815); experiment: SPR
T2 chain: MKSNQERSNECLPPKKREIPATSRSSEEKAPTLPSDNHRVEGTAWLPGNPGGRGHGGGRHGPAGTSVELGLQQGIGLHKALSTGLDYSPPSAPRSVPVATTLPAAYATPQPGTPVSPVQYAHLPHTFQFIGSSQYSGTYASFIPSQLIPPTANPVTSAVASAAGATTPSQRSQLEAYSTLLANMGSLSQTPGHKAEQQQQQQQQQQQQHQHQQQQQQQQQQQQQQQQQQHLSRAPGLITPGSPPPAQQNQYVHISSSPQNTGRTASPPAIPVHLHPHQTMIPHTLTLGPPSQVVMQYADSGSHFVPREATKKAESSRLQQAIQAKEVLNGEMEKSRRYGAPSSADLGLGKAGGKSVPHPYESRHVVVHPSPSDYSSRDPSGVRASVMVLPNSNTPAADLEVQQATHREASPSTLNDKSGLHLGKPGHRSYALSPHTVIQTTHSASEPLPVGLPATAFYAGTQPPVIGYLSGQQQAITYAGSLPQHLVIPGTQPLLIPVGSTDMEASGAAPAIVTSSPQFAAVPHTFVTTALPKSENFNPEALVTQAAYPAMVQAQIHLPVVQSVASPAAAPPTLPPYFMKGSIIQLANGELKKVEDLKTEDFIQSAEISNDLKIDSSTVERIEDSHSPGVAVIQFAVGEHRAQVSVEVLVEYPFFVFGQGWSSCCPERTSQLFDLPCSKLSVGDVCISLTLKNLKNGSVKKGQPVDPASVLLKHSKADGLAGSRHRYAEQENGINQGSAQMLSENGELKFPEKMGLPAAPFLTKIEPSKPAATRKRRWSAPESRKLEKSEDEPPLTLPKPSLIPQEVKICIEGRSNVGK

GST-Atxn1-86Q = biological target: T3, GST-Atxn1-86Q (UniProt P54253 1-815); experiment: SPR
T3 chain: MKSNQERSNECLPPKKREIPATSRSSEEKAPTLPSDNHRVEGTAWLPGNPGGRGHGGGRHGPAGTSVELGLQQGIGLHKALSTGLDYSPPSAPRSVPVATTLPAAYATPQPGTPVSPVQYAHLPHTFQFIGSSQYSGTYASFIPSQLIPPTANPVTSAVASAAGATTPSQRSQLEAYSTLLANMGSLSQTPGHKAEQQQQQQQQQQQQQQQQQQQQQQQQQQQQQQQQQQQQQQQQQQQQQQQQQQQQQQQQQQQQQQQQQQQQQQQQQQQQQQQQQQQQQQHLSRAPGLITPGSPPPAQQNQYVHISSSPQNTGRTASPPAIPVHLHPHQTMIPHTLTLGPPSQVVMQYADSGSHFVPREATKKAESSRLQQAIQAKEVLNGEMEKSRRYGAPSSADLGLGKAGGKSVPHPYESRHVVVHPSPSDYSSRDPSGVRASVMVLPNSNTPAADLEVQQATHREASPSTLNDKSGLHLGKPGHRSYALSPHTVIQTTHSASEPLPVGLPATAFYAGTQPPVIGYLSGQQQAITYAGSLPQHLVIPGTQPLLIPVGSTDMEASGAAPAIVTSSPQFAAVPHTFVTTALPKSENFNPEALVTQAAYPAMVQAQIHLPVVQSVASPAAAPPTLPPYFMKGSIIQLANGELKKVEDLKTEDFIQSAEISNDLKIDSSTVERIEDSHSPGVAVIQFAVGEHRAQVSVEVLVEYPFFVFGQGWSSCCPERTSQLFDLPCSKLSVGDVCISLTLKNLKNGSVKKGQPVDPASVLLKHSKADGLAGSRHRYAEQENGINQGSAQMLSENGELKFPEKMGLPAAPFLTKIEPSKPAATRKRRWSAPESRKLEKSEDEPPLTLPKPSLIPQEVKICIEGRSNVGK

[1] = biological target: T4, human fibrillarin (His-tag fusion protein) (human, UniProt P22087 1-321); experiment: SPR; PQBP5 analyte, fibrillarin immobilized
T4 chain: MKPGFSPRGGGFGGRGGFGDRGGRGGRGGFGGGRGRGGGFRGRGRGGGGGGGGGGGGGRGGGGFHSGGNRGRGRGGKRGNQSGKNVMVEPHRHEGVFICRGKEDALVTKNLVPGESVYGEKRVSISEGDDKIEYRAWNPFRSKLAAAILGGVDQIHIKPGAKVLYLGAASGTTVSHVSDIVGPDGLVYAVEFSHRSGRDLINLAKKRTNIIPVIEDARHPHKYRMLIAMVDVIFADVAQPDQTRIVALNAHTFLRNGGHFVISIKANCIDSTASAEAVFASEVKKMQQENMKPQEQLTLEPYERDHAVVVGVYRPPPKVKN

[2] = biological target: human nucleolin (His-tag fusion protein) (human, UniProt P19338 1-710); experiment: SPR; PQBP5 analyte, nucleolin immobilized
Sequence of human nucleolin (His-tag fusion protein) (P19338 whole entry, the tested form may be a part): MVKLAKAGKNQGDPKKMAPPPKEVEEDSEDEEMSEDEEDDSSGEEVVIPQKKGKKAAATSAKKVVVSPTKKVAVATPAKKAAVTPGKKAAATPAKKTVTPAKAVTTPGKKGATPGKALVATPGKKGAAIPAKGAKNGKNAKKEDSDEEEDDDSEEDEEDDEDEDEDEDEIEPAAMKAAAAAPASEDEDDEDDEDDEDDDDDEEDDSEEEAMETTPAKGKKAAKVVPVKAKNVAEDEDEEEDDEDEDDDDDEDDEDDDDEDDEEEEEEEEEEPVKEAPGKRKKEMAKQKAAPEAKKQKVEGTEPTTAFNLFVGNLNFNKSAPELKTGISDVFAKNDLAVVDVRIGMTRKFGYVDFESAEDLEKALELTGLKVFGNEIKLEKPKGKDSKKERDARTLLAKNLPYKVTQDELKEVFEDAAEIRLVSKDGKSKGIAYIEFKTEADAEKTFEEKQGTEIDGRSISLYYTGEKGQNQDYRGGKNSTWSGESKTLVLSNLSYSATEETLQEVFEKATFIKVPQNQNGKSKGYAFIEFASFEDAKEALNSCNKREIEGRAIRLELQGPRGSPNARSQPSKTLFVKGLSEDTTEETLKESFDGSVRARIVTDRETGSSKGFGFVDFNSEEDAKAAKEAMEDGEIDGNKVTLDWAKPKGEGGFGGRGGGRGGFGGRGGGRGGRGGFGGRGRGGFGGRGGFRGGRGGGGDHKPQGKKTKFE

Row | Binder | Kd (GST-Htt-110Q) [nM] | Kd (GST-Atxn1-33Q) [nM] | Kd (GST-Atxn1-86Q) [nM] | Kd [1] [nM] | Kd [2] [nM]
1 | B1 | 0.424 | – | – | – | –
2 | B2 | – | 0.342 | 0.179 | 745 | 0.447
3 | B3 | 0.00362 | – | – | – | –
4 | B4 | – | 0.355 | 0.294 | – | –
5 | B5 | 2.11 | – | – | – | –

Reference: article PMC9813255 (2023)
